In patent US20260151494A1 (ARO BIOTHERAPEUTICS, published 2026):
Where a chain is given by its changes, count along the chain named.

B1: CD71-binding FN3 domain SEQ ID NO 380 (designed binder)
chain: MLPAPKNLVVSRVTEDSARLSWTAPDAAFDSFFIGYLEPQPPGEAIGLFVPGSERSYDLTGLKPGTEYNVTIQGVKGGFPSMPLSAIFTT
B2: CD71-binding FN3 domain SEQ ID NO 363 (designed binder)
chain: B1 chain with G47D, F49W, M82L
B3: CD71-binding FN3 domain SEQ ID NO 387 (designed binder)
chain: B1 chain with G47H, F49V, M82D, S85Y, I87W
B4: CD71-binding FN3 domain SEQ ID NO 349 (designed binder)
chain: B1 chain with G47E, F49Y, M82E, S85I, I87H
B5: CD71-binding FN3 domain SEQ ID NO 361 (designed binder)
chain: B1 chain with G47Q, M82I, I87L
B6: CD71-binding FN3 domain SEQ ID NO 378 (designed binder)
chain: B1 chain with G47D, F49W, M82T, S85I, I87T, F88V
B7: CD71-binding FN3 domain SEQ ID NO 391 (designed binder)
chain: B1 chain with V9I, G47S, F49Y, M82D, S85Q
B8: CD71-binding FN3 domain SEQ ID NO 368 (designed binder)
chain: B1 chain with G47T, F49T, M82G, S85I, I87S
B9: CD71-binding FN3 domain SEQ ID NO 355 (designed binder)
chain: B1 chain with G47H, F49Y, M82H, S85Y, I87D
B10: CD71-binding FN3 domain SEQ ID NO 373 (designed binder)
chain: B1 chain with G47S, M82D, S85V, I87S
B11: CD71-binding FN3 domain SEQ ID NO 350 (designed binder)
chain: B1 chain with G47S, S85V, I87Q
B12: CD71-binding FN3 domain SEQ ID NO 382 (designed binder)
chain: B1 chain with G47E, F49Y, M82D, S85E, I87D
B13: CD71-binding FN3 domain SEQ ID NO 356 (designed binder)
chain: B1 chain with V13I, G47T, F49L, G52A, M82H, S85Q, I87Q
B14: CD71-binding FN3 domain SEQ ID NO 346 (designed binder)
chain: B1 chain with G47S, M82D, S85N, I87T, T89N
B15: CD71-binding FN3 domain SEQ ID NO 389 (designed binder)
chain: B1 chain with G47H, F49L, F88V
B16: CD71-binding FN3 domain SEQ ID NO 392 (designed binder)
chain: B1 chain with G47H, F49G, M82L, S85V, I87T
B17: CD71-binding FN3 domain SEQ ID NO 383 (designed binder)
chain: B1 chain with G47D, F49W, M82L, S85D, I87V
B18: CD71-binding FN3 domain SEQ ID NO 364 (designed binder)
chain: B1 chain with K6N, G47H, M82G, S85H, I87T
B19: CD71-binding FN3 domain SEQ ID NO 366 (designed binder)
chain: B1 chain with G47D, F49W, M82N, S85K, I87Q
B20: CD71-binding FN3 domain SEQ ID NO 353 (designed binder)
chain: B1 chain with M82N, S85E, I87R
B21: CD71-binding FN3 domain SEQ ID NO 398 (designed binder)
chain: B1 chain with G47Y, F49T, M82K, S85T, I87N
B22: CD71-binding FN3 domain SEQ ID NO 365 (designed binder)
chain: B1 chain with G47V, F49W, M82H, S85V, I87K
B23: CD71-binding FN3 domain SEQ ID NO 372 (designed binder)
chain: B1 chain with G47N, F49L, M82L, S85L, I87E
B24: CD71-binding FN3 domain SEQ ID NO 351 (designed binder)
chain: B1 chain with G47T, F49A, M82N, S85L, I87A
B25: CD71-binding FN3 domain SEQ ID NO 377 (designed binder)
chain: B1 chain with G47Q, F49W, M82T, S85Q, I87L
B26: CD71-binding FN3 domain SEQ ID NO 354 (designed binder)
chain: B1 chain with G47Q, F49W, M82L, S85V, I87T
B27: CD71-binding FN3 domain SEQ ID NO 393 (designed binder)
chain: B1 chain with M82L, S85Q, I87H
B28: CD71-binding FN3 domain SEQ ID NO 395 (designed binder)
chain: B1 chain with A27T, M82D, I87F
B29: CD71-binding FN3 domain SEQ ID NO 376 (designed binder)
chain: B1 chain with G47A, F49L, M82N, S85E, I87K
B30: CD71-binding FN3 domain SEQ ID NO 357 (designed binder)
chain: B1 chain with M82D, S85V, I87Y
B31: CD71-binding FN3 domain SEQ ID NO 394 (designed binder)
chain: B1 chain with G47Y, F49L, M82T, S85E, I87S
B32: CD71-binding FN3 domain SEQ ID NO 375 (designed binder)
chain: B1 chain with G47D, F49T
B33: CD71-binding FN3 domain SEQ ID NO 401 (designed binder)
chain: B1 chain with G47A, F49W, V70I, S85V, I87N
B34: CD71-binding FN3 domain SEQ ID NO 396 (designed binder)
chain: B1 chain with G47Y, F49T
B35: CD71-binding FN3 domain SEQ ID NO 400 (designed binder)
chain: B1 chain with G47H, M82G, S85H, I87T
B36: CD71-binding FN3 domain SEQ ID NO 347 (designed binder)
chain: B1 chain with M82E, S85K, I87A
B37: CD71-binding FN3 domain SEQ ID NO 369 (designed binder)
chain: B1 chain with G47V, F49W, M82H, S85V, I87K, F88S
B38: CD71-binding FN3 domain SEQ ID NO 399 (designed binder)
chain: B1 chain with G47T, F49Y, M82T, S85T, I87T
B39: CD71-binding FN3 domain SEQ ID NO 385 (designed binder)
chain: B1 chain with G47D, F49Y, M82H, S85Q, I87H
B40: CD71-binding FN3 domain SEQ ID NO 360 (designed binder)
chain: B1 chain with G47S, F49Y, M82H, S85L, I87V

molecular target: T1, human CD71 extracellular domain (human, UniProt P02786 89-760); test: primary ELISA; signal over HSA control; for RLU: test concentration or dose not given here
T1 construct: also called hCD71; CD71-ECD
T1 sequence (P02786 89-760): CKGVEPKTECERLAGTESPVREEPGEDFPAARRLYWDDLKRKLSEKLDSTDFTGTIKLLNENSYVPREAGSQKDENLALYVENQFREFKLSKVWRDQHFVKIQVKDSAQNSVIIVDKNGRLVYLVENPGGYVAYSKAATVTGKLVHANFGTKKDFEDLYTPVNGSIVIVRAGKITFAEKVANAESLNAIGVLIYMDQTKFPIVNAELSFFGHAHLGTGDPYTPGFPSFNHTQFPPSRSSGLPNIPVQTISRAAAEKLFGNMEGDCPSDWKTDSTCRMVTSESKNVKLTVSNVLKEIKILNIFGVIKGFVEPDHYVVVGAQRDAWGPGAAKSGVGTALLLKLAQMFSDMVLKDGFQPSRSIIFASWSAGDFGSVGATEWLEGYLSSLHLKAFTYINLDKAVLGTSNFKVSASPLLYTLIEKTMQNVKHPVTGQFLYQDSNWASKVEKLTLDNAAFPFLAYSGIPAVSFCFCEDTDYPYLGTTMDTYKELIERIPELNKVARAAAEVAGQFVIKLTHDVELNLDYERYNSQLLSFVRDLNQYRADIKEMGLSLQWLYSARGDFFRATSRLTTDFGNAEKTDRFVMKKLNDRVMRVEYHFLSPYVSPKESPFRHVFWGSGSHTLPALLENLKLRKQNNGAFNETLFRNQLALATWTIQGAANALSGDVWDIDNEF

hCD71:HSA | Binder
21 ratio | B1
273 ratio | B2
203 ratio | B3
22 ratio | B4
210 ratio | B5
76 ratio | B6
108 ratio | B7
218 ratio | B8
257 ratio | B9
98 ratio | B10
127 ratio | B11
160 ratio | B12
207 ratio | B13
61 ratio | B14
121 ratio | B15
237 ratio | B16
94 ratio | B17
60 ratio | B18
213 ratio | B19
53 ratio | B20

hCD71:HSA | Binder
132 ratio | B21
67 ratio | B22
124 ratio | B23
322 ratio | B24
125 ratio | B25
155 ratio | B26
42 ratio | B27
72 ratio | B28
153 ratio | B29
16 ratio | B30
218 ratio | B31
187 ratio | B32
41 ratio | B33
165 ratio | B34
141 ratio | B35
116 ratio | B36
172 ratio | B37
297 ratio | B38
142 ratio | B39
155 ratio | B40

molecular target: T2, human apical domain of CD71 (human, UniProt P02786 189-383, limits assumed); test: primary ELISA; signal over HSA control; for RLU: test concentration or dose not given here
T2 construct: domain: apical domain
T2 sequence (P02786 189-383 limits assumed): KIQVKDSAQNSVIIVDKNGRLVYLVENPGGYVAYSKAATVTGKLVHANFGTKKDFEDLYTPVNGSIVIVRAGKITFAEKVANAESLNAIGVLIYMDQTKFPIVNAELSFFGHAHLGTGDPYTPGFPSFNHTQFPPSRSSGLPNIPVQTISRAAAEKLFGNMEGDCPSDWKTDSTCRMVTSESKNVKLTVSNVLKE

Apical domain:HSA | Binder
25 ratio | B1
320 ratio | B2
441 ratio | B3
23 ratio | B4
342 ratio | B5
76 ratio | B6
163 ratio | B7
246 ratio | B8
424 ratio | B9
115 ratio | B10
143 ratio | B11
203 ratio | B12
337 ratio | B13
83 ratio | B14
129 ratio | B15
194 ratio | B16
220 ratio | B17
67 ratio | B18
313 ratio | B19
80 ratio | B20

Apical domain:HSA | Binder
129 ratio | B21
65 ratio | B22
205 ratio | B23
345 ratio | B24
274 ratio | B25
142 ratio | B26
58 ratio | B27
92 ratio | B28
167 ratio | B29
18 ratio | B30
430 ratio | B31
139 ratio | B32
42 ratio | B33
183 ratio | B34
163 ratio | B35
168 ratio | B36
165 ratio | B37
255 ratio | B38
146 ratio | B39
144 ratio | B40

molecular target: T1, human CD71 extracellular domain; test: primary ELISA; note: test concentration or dose not given here

RLU | Binder
5.32e+06 RLU | B1
4.18e+06 RLU | B2
1.79e+06 RLU | B3
6.37e+06 RLU | B4
3.08e+06 RLU | B5
6.12e+06 RLU | B6
2.78e+06 RLU | B7
5.53e+06 RLU | B8
3.58e+06 RLU | B9
4.86e+06 RLU | B10
5.96e+06 RLU | B11
2.01e+06 RLU | B12
3.92e+06 RLU | B13
5e+06 RLU | B14
5.82e+06 RLU | B15
4.77e+06 RLU | B16
1.85e+06 RLU | B17
5.83e+06 RLU | B18
2.29e+06 RLU | B19
4.54e+06 RLU | B20

RLU | Binder
2.12e+06 RLU | B21
6.85e+06 RLU | B22
2.8e+06 RLU | B23
2.67e+06 RLU | B24
1.57e+06 RLU | B25
5.75e+06 RLU | B26
4.39e+06 RLU | B27
5.11e+06 RLU | B28
5.96e+06 RLU | B29
5.62e+06 RLU | B30
2.86e+06 RLU | B31
2.82e+06 RLU | B32
5.64e+06 RLU | B33
2.23e+06 RLU | B34
5.67e+06 RLU | B35
4.1e+06 RLU | B36
3.82e+06 RLU | B37
5.88e+06 RLU | B38
5.74e+06 RLU | B39
5.78e+06 RLU | B40

molecular target: T2, human apical domain of CD71; test: primary ELISA; note: test concentration or dose not given here

RLU | Binder
6.5e+06 RLU | B1
4.91e+06 RLU | B2
3.88e+06 RLU | B3
6.87e+06 RLU | B4
5.01e+06 RLU | B5
6.12e+06 RLU | B6
4.19e+06 RLU | B7
6.23e+06 RLU | B8
5.91e+06 RLU | B9
5.73e+06 RLU | B10
6.7e+06 RLU | B11
2.55e+06 RLU | B12
6.37e+06 RLU | B13
6.82e+06 RLU | B14
6.19e+06 RLU | B15
3.9e+06 RLU | B16
4.33e+06 RLU | B17
6.5e+06 RLU | B18
3.37e+06 RLU | B19
6.87e+06 RLU | B20

RLU | Binder
2.07e+06 RLU | B21
6.7e+06 RLU | B22
4.63e+06 RLU | B23
2.87e+06 RLU | B24
3.43e+06 RLU | B25
5.25e+06 RLU | B26
6.09e+06 RLU | B27
6.59e+06 RLU | B28
6.47e+06 RLU | B29
6.34e+06 RLU | B30
5.66e+06 RLU | B31
2.09e+06 RLU | B32
5.82e+06 RLU | B33
2.47e+06 RLU | B34
6.54e+06 RLU | B35
5.95e+06 RLU | B36
3.66e+06 RLU | B37
5.04e+06 RLU | B38
5.91e+06 RLU | B39
5.37e+06 RLU | B40
